Reference: US10058586B2, “Use of human small leucine zipper protein in adipocyte differentiation procedure” (Korea University Research and Business Foundation, priority 2013, dated 2018)

B1: sLZIP: human small leucine-zipper protein, isoform of LZIP, 354 amino acids, no transmembrane domain; GenBank FJ263669, SEQ ID NO: 1 (protein, listed as Homo sapiens)
chain: MELELDAGDQDLLAFLLEESGDLGTAPDEAVRAPLDWALPLSEVPSDWEVDDLLCSLLSPPASLNILSSSNPCLVHHDHTYSLPRETVSMDLESESCRKEGTQMTPQHMEELAEQEIARLVLTDEEKSLLEKEGLILPETLPLTKTEEQILKRVRRKIRNKRSAQESRRKKKVYVGGLESRVLKYTAQNMELQNKVQLLEEQNLSLLDQLRKLQAMVIEISNKTSSSSMYSSDTRGSLPAEHGVLSRQLRALPSEDPYQLELPALQSEVPKDSTHQWLDGSDCVLQAPGNTSCLLHYMPQAPSAEPPLEWPFPDLFSEPLCRGPILPLQANLTRKGGWLPTGSPSVILQDRYSG
B2: N domains of sLZIP: N-terminal deletion mutant of sLZIP, residues 1-228 (protein)
chain: MELELDAGDQDLLAFLLEESGDLGTAPDEAVRAPLDWALPLSEVPSDWEVDDLLCSLLSPPASLNILSSSNPCLVHHDHTYSLPRETVSMDLESESCRKEGTQMTPQHMEELAEQEIARLVLTDEEKSLLEKEGLILPETLPLTKTEEQILKRVRRKIRNKRSAQESRRKKKVYVGGLESRVLKYTAQNMELQNKVQLLEEQNLSLLDQLRKLQAMVIEISNKTSSSS
modifications: left off: a dimerising Fc or GST

Tested on: PPARγ2
Experiment: GST pull-down / immunoprecipitation of sLZIP and PPARγ2 in transfected 293T cells
Format: binding
Description: 293T cells were obtained and washed with cold PBS. The cells were re-suspended in an IP lysis buffer [25 mM of Tris-HCl (pH 7.4), 150 mM of NaCl, 1 mM of EDTA, 1% NP-40 and 5% glycerol, and a protease inhibitor]. A suspension was centrifuged at 16,000×g for 20 minutes at 4° C. Supernatants were collected and incubated with 0.5 μg of appropriate antibodies and 25 μl of protein A/G-agarose or a GST Sepharose 4B bead for 24 hours at 4° C. A protein complex was centrifuged at 1,000×g with a cold IP lysis buffer for 1 minute and washed five times. The final pellet was re-suspended in 50 μl of an SDS-sample buffer containing 5% β-mercaptoethanol and heated for 10 minutes at 100° C. A protein sample was isolated in SDS-PAGE (8 to 10%) and transferred to nitrocellulose membranes. Co-precipitated proteins were detected according to western blotting using specific antibodies.
In order to examine whether the transcriptional activity of PPARγ2 is regulated by interaction with sLZIP, interaction between sLZIP and PPARγ2 was examined. For this purpose, 293T cells were transfected with GST-sLZIP and Myc-PPARγ2. Cell lysates were obtained and GST pull-down analysis was performed using a glutathione 4B bead. A protein complex was analyzed in SDS-PAGE and then immunoblotted with specific antibodies (FIG. 2A). The 293T cells were transfected with GST-PPARγ2 and Flag-sLZIP, and identified according to GST-pull-down analysis (FIG. 2B). PPARγ2 was translated in vitro by a TNT translation system (Promega). His-sLZIP proteins were expressed in BL21 cells using an IPTG-inducement system. Purified His-sLZIP proteins were subjected to His pull-down analysis. Proteins bound to the bead were analyzed in SDS-PAGE, and then immunoblotted with anti-PPARγ2 and anti-His antibodies (FIG. 2C). GFP-PPARγ2 and Flag-sLZIP constructs were expressed in C3H10T1/2 cells, and analyzed using mouse anti-Flag and Texas Red-labeled anti-mouse antibodies under a fluorescence microscope. The nucleus was stained with DAPI (FIG. 2D).
Activation of many nuclear receptors depends on a supplement of coactivators. Therefore, a domain of sLZIP necessary for binding with PPARγ2 was examined. For this purpose, 293T cells were transfected with GST-full length sLZIP (1-354), N-terminal deletion mutant sLZIP (1-228), C-terminal deletion mutant sLZIP (229-354), CC-terminal deletion mutant sLZIP (297-354) and PPARγ2. Cell lysates were obtained and GST pull-down analysis was performed using a glutathione 4B bead. A protein complex was analyzed in SDS-PAGE, and then immunoblotted with specific antibodies (FIG. 3A). 293T cells were transfected with Flag-full length PPARγ2, full length PPARγ2, N-terminal deletion mutant PPARγ2 (1-310), C-terminal deletion mutants PPARγ2 (139-505) and GST-sLZIP. Cell lysates were obtained and GST pull-down analysis was performed. A protein complex was analyzed in SDS-PAGE, and then immunoblotted with anti-GST and anti-Flag antibodies (FIG. 3B).
For this purpose, 293T cells were transfected with GST-PPARγ2 and Flag-sLZIP and were treated or not treated with 10 nM of RZD for 24 hours. Cell lysates were obtained and GST pull-down analysis (FIG. 5A) and immunoprecipitation (FIG. 5B) were performed using a glutathione 4B bead. A protein complex was analyzed in SDS-PAGE, and immunoblotted with anti-GST and anti-Flag antibodies. GST-PARγ2 and Flag-sLZIP were expressed in the 293T cells, and the cells were treated with 10 nM of RZD according to time of day. The cell lysates were GST pull-down analyzed (FIG. 5C). 293T cells were transfected with GST-HDAC3 and Flag-sLZIP, and treated or not treated with 10 nM of RZD for 24 hours. The cell lysates were GST pull-down analyzed (FIG. 5D). Flag-sLZIP was expressed in the 293T cells, and the cells were treated with 10 nM of RZD for 24 hours. Immunoprecipitation analysis of the cell lysates was performed using anti-NCoR1 antibodies. […]

Molecule | interaction with PPARγ2 (immunoprecipitation) (293T cells expressing Flag-sLZIP and GST-PPARγ2, ligand treated) | interaction with PPARγ2 (GST pull-down) (293T cells, 10 nM RZD for 24 hours) | time dependence of interaction with PPARγ2 (GST pull-down) (293T cells, 10 nM RZD, time course) | interaction with PPARγ2 (GST pull-down) (293T cells, no ligand) | interaction with PPARγ2 (GST pull-down) (293T cells, no ligand, listed as wild type sLZIP)
B1 | PPARγ2 was dissociated from sLZIP | dissociated from PPARγ2 | dissociated from PPARγ2 in a time-dependent manner | PPARγ2 interacted with sLZIP | interacted with PPARγ2
B2 | – | – | – | not interacted with PPARγ2 | –
